The text below walks through data of article PMC5688999 (RNA, 2017).

No end group written: not given here.

In experiment [1] the target is T1, Mtr4-ΔN (helicase region of Mtr4, residues 81–1073) (S. cerevisiae, UniProt P47047 81-1073).
T1 sequence (looked up): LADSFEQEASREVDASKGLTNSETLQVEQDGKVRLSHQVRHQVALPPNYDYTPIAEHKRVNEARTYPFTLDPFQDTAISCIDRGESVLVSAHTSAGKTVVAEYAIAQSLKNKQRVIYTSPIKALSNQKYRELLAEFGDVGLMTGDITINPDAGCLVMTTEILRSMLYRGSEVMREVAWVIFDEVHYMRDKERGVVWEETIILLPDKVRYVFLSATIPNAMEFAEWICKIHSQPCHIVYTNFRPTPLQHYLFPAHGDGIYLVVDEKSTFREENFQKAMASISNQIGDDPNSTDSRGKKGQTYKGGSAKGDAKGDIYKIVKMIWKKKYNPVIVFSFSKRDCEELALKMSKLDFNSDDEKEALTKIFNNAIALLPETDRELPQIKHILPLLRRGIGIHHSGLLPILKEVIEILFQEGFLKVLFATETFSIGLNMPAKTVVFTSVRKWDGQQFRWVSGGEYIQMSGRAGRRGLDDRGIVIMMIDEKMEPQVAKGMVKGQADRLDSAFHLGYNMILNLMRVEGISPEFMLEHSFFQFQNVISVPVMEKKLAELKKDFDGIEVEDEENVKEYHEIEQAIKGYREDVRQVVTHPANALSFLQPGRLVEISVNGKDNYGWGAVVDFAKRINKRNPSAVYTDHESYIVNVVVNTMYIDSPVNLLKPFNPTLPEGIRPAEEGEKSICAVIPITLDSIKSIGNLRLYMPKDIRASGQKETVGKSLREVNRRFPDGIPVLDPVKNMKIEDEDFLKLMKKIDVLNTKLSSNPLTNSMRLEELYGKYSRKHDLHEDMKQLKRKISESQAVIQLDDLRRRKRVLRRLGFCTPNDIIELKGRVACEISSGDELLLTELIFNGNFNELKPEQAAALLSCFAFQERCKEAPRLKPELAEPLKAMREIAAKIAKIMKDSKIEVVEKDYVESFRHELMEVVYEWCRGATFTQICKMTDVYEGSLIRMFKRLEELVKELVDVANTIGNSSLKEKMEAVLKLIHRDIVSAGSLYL
Kind of experiment: ITC.

Experiment [2] has as its target T2, GST-tagged yeast Mtr4 short arch (GST-Mtr4^SA, residues 638–842), wild type (S. cerevisiae, UniProt P47047 638-842).
T2 sequence (looked up): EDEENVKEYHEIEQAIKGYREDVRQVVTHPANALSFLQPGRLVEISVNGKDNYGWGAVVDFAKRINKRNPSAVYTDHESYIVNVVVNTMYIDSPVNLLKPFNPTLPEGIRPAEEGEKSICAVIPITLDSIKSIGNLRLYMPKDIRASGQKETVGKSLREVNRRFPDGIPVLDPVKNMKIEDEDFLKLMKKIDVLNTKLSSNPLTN
Put plainly: pull-down.

HVNNDQLFFVDDGGNEDSQDKNEDTMDVDDEDD (domain or fragment, S. cerevisiae, UniProt P40362 78-110, looked up) [Utp18_(prot) (Utp18 residues 78–110)] gave a Kd in experiment [1] of around 20 µM.

In turn, DALFHVDVEGDEILKNKLIKRKQIKKVLKSKEIL (domain or fragment, S. cerevisiae, UniProt Q12080 58-91, looked up) [Nop53_(prot) (Nop53 residues 58–91)] showed a dissociation constant Kd in experiment [1] of around 18 µM.

B1: Z-tagged Nop53 (residues 48–99) (domain or fragment, S. cerevisiae, UniProt Q12080 48-99, looked up)
chain: GTSDITSLQNDALFHVDVEGDEILKNKLIKRKQIKKVLKSKEILDAVKTNSK
modifications: also: Z-tagged
On to B1, for which the binding result in experiment [2] is reported as “binds”.
